Consider 9 molecules from patent publication US20110262446A1.

Assay [1] deals with IGF-IIE (amino acids 1-104) (human) (UniProt P01344). Briefly: SPR (Biacore T100): IgG captured on Protein G', ligand bound, then BP injected; competitor BP4. Background: Surface plasmon resonance follows binding to a sensor surface in real time, without labels.
The target is the same in assay [2]. Kind of assay: SPR (Biacore T100): IgG captured on Protein G', ligand bound, then BP injected; competitor BP2.
For assay [3] the target is unchanged. Briefly: SPR (Flexchip), Fab, second of duplicate; unit inferred.
For assay [4] the target is unchanged. Briefly: SPR (Flexchip), Fab, first of duplicate; unit inferred.
For assay [5] the target is unchanged. Briefly: competition SPR (Biacore T100), affinity in solution: Fab pre-incubated with ligand, free ligand read on immobilized huIR-A ECD; measurement #1; head prints 'KD nM'.
Assay [6] has the same target. Kind of assay: cell-based or functional assay.
Assay [7] shares this target. Kind of assay: SPR (Biacore), non-germlined IgG.
For assay [8] the target is unchanged. Kind of assay: SPR (Biacore), germlined IgG.
Assay [9] shares this target. Briefly: competition SPR (Biacore T100), affinity in solution: Fab pre-incubated with ligand, free ligand read on immobilized huIR-A ECD; measurement #2; head prints 'KD nM'.

A value given as a limit tells only on which side of the number the result lay.

Chain of IGF-IIE (amino acids 1-104) (human) (P01344 25-128 limits assumed, form in doubt): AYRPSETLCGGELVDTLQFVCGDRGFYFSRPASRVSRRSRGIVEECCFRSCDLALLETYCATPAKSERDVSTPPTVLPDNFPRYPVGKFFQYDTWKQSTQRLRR

B1: M0070-H08 IgG (antibody, V domains shown)
VH: EVQLLESGGGLVQPGGSLRLSCAASGFTFSRYWMIWVRQAPGKGLEWVSSIRSSGETKYADSVKGRFTISRDNSKNTLYLQMNSLRAEDTAVYYCARGPLSDYYDSSGYYFDAFDIWGQGTMVTVSS
VL: DIQMTQSPSSLSASAGDRVTITCRASQSISSYLNWYQQKPGKAPNLLIYTTSNLQGGVPSRFSGSGSGTDFTLTISSLQPEDFATYYCQQGYSFPLTFGGGTKVEIK
On to B1, for which the competition score (0 = does not compete significantly, 5 = competes strongly) in [1] is 1 score 0-5; in assay [2] it was 2 score 0-5.

B2: M0070-H08 Fab (Fab, V domains shown)
VH: EVQLLESGGGLVQPGGSLRLSCAASGFTFSRYWMIWVRQAPGKGLEWVSSIRSSGETKYADSVKGRFTISRDNSKNTLYLQMNSLRAEDTAVYYCARGPLSDYYDSSGYYFDAFDIWGQGTMVTVSS
VL: DIQMTQSPSSLSASAGDRVTITCRASQSISSYLNWYQQKPGKAPNLLIYTTSNLQGGVPSRFSGSGSGTDFTLTISSLQPEDFATYYCQQGYSFPLTFGGGTKVEIKR
In the case of B2, the Kd (as a rule, the concentration at which binding is half-saturated) in [3] came out at 0.39 nM; in assay [4] it was 0.36 nM; in assay [5], 4.83 nM.

B3: M0064-E04 IgG (antibody, V domains shown)
VH: EVQLLESGGGLVQPGGSLRLSCAASGFTFSVYDMNWVRQAPGKGLEWVSSISSSGGGTLYADSVKGRFTISRDNSKNTLYLQMNSLRAEDTAVYYCARDSDTSSYYWYYDLWGRGTLVTVSS
VL: DIQMTQSPSSLSASVGDRVTITCQASHDISNYLNWYQQKPGKAPKLLIYAASRLQSGVPSRFSGGGSGTDFSLTISSLQAEDFATYYCQQSYSFPRTFGQGTNLEIK
In [6], B3 showed an IC50, IGF-IIE stimulated BaF3 cell proliferation (Guava ViaCount) of 130 nM. In addition, the competition score (0 = does not compete significantly, 5 = competes strongly) in [1] and in assay [2] was 4 score 0-5 throughout. The molecule also registered an equilibrium dissociation constant (Kd) in assay [7] of 0.24 nM.

B4: X0005-H01 (germlined M0064-E04 IgG) (antibody, V domains shown)
VH: EVQLLESGGGLVQPGGSLRLSCAASGFTFSVYDMNWVRQAPGKGLEWVSSISSSGGGTLYADSVKGRFTISRDNSKNTLYLQMNSLRAEDTAVYYCARDSDTSSYYWYYDLWGRGTLVTVSS
VL: DIQMTQSPSSLSASVGDRVTITCQASHDISNYLNWYQQKPGKAPKLLIYAASRLQSGVPSRFSGSGSGTDFTLTISSLQPEDFATYYCQQSYSFPRTFGQGTRLEIK
As to B4, the Kd in assay [8] was 0.26 nM. That is a sub-nanomolar value.

B5: X0008-A01 (germlined M0064-F02 IgG) (antibody, V domains shown)
VH: EVQLLESGGGLVQPGGSLRLSCAASGFTFSNYIMWWVRQAPGKGLEWVSVISSSGGMTRYADSVKGRFTISRDNSKNTLYLQMNSLRAEDTAVYYCARDNGDYVGEKGFDIWGQGTMVTVSS
VL: DIQMTQSPSSLSASVGDRVTITCRASQSISNYLNWYQQKPGKAPKLLIYTASTLQSGVPSRFSGSGSGTDFTLTISSLQPEDFATYYCQQSYNSPWTFGQGTKVEIK
In the case of B5, the Kd in assay [8] is below 0.023 nM.

B6: M0072-C06 Fab (Fab, V domains shown)
VH: EVQLLESGGGLVQPGGSLRLSCAASGFTFSAYIMTWVRQAPGKGLEWVSSISPSGGYTVYADSVKGRFTISRDNSKNTLYLQMNSLRAEDTAVYYCARDSGFGDPFDYWGQGTMVTVSS
VL: DIQMTQSPSSLSASVGDRVTITCRASQSIRNYLNWYQQKPGKAPKLLIYAASKLEDGVPSRFSGSGTGTDFTLTIRSLQPEDFASYFCQQSYSSPGITFGPGTKVEIKR
As for B6, the IC50, IGF-IIE stimulated BA/F3 cell proliferation (MTS) in assay [6] stood at 2.3 µg/mL. Also, the results for the dissociation constant Kd in [9], in assay [4] and in assay [5] were 1.05 nM, 0.52 nM and 3.95 nM, respectively.

B7: M0072-C06 IgG (antibody, V domains shown)
VH: EVQLLESGGGLVQPGGSLRLSCAASGFTFSAYIMTWVRQAPGKGLEWVSSISPSGGYTVYADSVKGRFTISRDNSKNTLYLQMNSLRAEDTAVYYCARDSGFGDPFDYWGQGTMVTVSS
VL: DIQMTQSPSSLSASVGDRVTITCRASQSIRNYLNWYQQKPGKAPKLLIYAASKLEDGVPSRFSGSGTGTDFTLTIRSLQPEDFASYFCQQSYSSPGITFGPGTKVEIK
For B7, the competition score (0 = does not compete significantly, 5 = competes strongly) came to 1 score 0-5 in assay [1] and 2 score 0-5 in assay [2].

B8: M0063-F02 Fab (Fab, V domains shown)
VH: EVQLLESGGGLVQPGGSLRLSCAASGFTFSKYEMDWVRQAPGKGLEWVSVISSSGGGTIYADSVKGRFTISRDNSKNTLYLQMNSLRAEDTAMYYCARGRTLYGGAFDIWGQGTMVTVSS
VL: DIQMTQSPSSLSASVGDRVTITCRASQPINTYLNWYQQRPGKAPRILIYTSSTLQSGVPSRFSGSGSGTDFTLTISSVQPEDFATYYCQQSYSFPLTFGGGTKVEIKR
In assay [6], B8 displayed an IC50, IGF-IIE stimulated BA/F3 cell proliferation (MTS) of 2.04 µg/mL. Besides, the Kd in assay [9] came out at 1.47 nM; in assay [3] it was 0.2 nM; in assay [4] it was 0.12 nM; in assay [5] it was 2.78 nM.

B9: M0063-F02 IgG (antibody, V domains shown)
VH: EVQLLESGGGLVQPGGSLRLSCAASGFTFSKYEMDWVRQAPGKGLEWVSVISSSGGGTIYADSVKGRFTISRDNSKNTLYLQMNSLRAEDTAMYYCARGRTLYGGAFDIWGQGTMVTVSS
VL: DIQMTQSPSSLSASVGDRVTITCRASQPINTYLNWYQQRPGKAPRILIYTSSTLQSGVPSRFSGSGSGTDFTLTISSVQPEDFATYYCQQSYSFPLTFGGGTKVEIK
Take B9: in assay [6], the IC50, IGF-IIE stimulated BaF3 cell proliferation (Guava ViaCount) worked out at 0.85 nM and the IC50, IGF-IIE stimulated BaF3 cell proliferation (Guava ViaCount), second study amounted to 10 nM. The molecule also showed a competition score (0 = does not compete significantly, 5 = competes strongly) in assay [1] of 1 score 0-5. This molecule also gave a competition score (0 = does not compete significantly, 5 = competes strongly) in assay [2] of 1 score 0-5.
